{
  "source": "patent US20180057581A1",
  "about": "(MorphoSys, published 2018)",
  "key": {"[1]": {"molecular_target": "T1, human M-CSF (human, UniProt P09603 33-255, limits assumed)", "T1 construct": "also called M-CSF (human); CSF-1", "T1 sequence": "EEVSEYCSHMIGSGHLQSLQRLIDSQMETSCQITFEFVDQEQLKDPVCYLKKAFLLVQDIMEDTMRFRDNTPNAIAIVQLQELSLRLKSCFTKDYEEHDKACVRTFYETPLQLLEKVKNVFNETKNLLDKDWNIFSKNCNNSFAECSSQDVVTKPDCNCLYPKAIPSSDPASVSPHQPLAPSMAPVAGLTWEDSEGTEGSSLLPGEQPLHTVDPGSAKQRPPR", "experiment": "MSD specificity profiling, coated protein, Camille at 10 nM", "procedure": "For this specificity profiling test the different proteins and controls were coated on two 384-well MSD plates with a concentration of 1 μg/ml at 4° C. over night. Plates were blocked with BSA and washed three times with PBS with 0.05% (v/v) Tween 20. Antibody samples were diluted to 100 nM and 10 nM in assay buffer (PBS with 0.5% (w/v) BSA, 0.05% (v/v) Tween 20). […] Samples and controls were incubated for three hours at room temperature. The plates were washed three times and 30 μl detection antibody (ECL-labeled anti-human Fab) were added per well and incubated for 1 h. After washing, MSD Read Buffer T with surfactant was added and electrochemiluminescence signals were detected using a Sector Imager 6000 (Meso Scale Discovery, Gaithersburg, Md., USA)."}, "[2]": {"molecular_target": "T2, Recombinant cynomolgus monkey sgM-CSF (cynomolgus (Macaca fascicularis), UniProt P09603 33-255 (human entry), limits assumed)", "T2 construct": "used also where only 'cynomolgus M-CSF' is printed (ELISA result, SET); also called cynomolgus sgM-CSF; cyno sgM-CSF", "T2 chain": "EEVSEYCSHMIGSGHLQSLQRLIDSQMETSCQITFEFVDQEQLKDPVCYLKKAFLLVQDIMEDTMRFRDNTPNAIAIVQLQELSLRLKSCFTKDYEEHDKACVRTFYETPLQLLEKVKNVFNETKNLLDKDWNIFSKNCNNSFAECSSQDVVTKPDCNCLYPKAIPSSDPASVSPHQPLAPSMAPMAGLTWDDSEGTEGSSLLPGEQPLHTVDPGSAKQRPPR", "experiment": "Table 12 summary, criterion Binding, Cynomolgus M-CSF; assay and antibody format not named there"}},
  "data": [
    {"binder": "Camille (format not stated) (antibody, V domains shown, also called Antibody Camille) VH: QVQLQQSGPGLVKPSQTLSLTCAISGESVSTSSAAWNWIRQSPSRGLEWLGRTYYRSKWKHEYAVSVKSRITINPDTSKNQFSLQLNSVTPEDTAVYYCARDRYYYSAFDYWGQGTLVTVSS VL: QSALTQPASVSGSPGQSITISCTGTSSDVGGYNSVSWYQQHPGKAPKLLIYAVSNRPSGVSNRFSGSKSGNTASLTISGLQAEDEADYYCASYDERFTRVFGGGTKLTVLG", "values": [
      {"measurement": "signal normalized to reference antibody MOR03207", "setting": "[1]", "result": 244, "unit": "ratio"},
      {"measurement": "Kd", "setting": "[2]", "result": 25, "unit": "pM"}
    ]}
  ]
}
